The values below come from patent US20160137709A1 (AMRYT PHARMACEUTICALS, published 2016).

Positions count from the first letter of the chain named.

The term Kd denotes a measure of binding affinity in units of concentration.

In assay [1] the target is T1, chimeric Hu-Leptin/Mu-EPO receptor (human; mouse, UniProt P48357 22-839; P14753 250-507).
T1 sequence (looked up): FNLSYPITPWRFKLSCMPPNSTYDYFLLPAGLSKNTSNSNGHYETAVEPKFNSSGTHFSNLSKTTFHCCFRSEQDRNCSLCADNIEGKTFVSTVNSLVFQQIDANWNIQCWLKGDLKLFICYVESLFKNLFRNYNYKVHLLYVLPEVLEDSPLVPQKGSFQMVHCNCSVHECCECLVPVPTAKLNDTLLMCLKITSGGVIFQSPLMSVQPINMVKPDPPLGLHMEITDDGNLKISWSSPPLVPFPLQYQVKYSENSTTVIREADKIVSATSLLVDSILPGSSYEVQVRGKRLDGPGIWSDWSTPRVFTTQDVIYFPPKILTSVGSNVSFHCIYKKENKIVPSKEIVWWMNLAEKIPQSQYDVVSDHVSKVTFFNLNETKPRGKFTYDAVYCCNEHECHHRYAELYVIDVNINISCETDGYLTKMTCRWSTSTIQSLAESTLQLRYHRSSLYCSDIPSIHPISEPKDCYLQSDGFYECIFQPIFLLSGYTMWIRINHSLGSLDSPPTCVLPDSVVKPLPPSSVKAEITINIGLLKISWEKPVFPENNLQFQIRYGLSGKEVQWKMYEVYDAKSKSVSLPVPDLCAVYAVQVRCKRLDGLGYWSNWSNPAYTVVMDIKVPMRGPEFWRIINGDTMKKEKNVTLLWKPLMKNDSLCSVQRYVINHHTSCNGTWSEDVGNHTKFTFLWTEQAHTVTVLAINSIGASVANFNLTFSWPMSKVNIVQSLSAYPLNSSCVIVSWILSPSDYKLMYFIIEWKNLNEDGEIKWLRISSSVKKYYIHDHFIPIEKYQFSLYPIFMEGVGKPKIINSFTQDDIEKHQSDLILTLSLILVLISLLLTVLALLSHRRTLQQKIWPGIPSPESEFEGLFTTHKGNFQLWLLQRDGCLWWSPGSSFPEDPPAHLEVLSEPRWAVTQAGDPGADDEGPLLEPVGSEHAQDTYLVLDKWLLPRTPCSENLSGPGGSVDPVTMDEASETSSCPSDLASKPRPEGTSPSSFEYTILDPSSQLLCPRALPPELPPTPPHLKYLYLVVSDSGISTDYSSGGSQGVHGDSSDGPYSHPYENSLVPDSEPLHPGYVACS
The assay is described as follows: cell-based or functional assay.

A further assay addresses T2, Rat serum albumin (rat, UniProt P02770 25-608).
T2 construct: Amine-coupled to the GLC sensor chip; also called Rat SA; RSA
The assay can be described thus: SPR (BioRad ProteOn XPR36), albumin amine-coupled on GLC chip, polypeptide as analyte, 25 C.

The next assay addresses T3, Human serum albumin (human, UniProt P02768 25-609).
T3 construct: Amine-coupled to the GLC sensor chip; also called Human SA; HSA
Described as above.

The target in another assay is T4, Monkey serum albumin (monkey).
T4 construct: Amine-coupled to the GLC sensor chip; also called Monkey SA
T4 sequence (A2V9Z4 25-608): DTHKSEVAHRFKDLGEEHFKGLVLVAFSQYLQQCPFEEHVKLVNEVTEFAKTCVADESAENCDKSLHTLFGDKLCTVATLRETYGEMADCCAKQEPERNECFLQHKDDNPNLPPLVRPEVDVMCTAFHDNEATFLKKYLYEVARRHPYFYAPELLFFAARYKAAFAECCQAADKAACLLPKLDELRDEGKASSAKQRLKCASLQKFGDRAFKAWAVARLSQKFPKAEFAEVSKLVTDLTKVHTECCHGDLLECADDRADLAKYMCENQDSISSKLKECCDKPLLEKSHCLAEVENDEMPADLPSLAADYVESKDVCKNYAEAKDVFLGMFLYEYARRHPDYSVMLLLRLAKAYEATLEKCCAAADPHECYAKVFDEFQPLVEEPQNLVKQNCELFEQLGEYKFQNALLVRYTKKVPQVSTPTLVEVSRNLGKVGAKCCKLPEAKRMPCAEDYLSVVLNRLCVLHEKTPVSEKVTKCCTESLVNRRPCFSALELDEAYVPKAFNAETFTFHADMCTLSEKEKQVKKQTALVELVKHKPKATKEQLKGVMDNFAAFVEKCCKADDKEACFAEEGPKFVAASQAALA
Described as above.

The next assay deals with T5, Dog serum albumin (dog, UniProt P49822 25-608).
T5 construct: Amine-coupled to the GLC sensor chip; also called Dog SA
T5 sequence (P49822 25-608 limits assumed): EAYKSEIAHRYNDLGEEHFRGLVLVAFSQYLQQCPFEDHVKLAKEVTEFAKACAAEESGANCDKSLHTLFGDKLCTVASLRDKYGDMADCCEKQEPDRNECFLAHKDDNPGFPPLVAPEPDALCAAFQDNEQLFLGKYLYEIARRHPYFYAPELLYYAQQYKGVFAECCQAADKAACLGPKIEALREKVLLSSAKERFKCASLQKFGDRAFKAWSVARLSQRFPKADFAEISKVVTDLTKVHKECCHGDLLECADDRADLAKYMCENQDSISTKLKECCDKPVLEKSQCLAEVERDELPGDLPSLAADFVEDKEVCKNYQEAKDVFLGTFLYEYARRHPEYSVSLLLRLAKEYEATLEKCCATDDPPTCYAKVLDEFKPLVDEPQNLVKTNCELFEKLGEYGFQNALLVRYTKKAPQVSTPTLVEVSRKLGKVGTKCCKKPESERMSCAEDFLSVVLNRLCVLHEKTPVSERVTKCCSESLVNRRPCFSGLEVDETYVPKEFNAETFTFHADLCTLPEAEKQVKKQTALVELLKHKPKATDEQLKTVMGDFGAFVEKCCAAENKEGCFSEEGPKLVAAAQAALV
The assay is described as above.

The next assay concerns the target T6, Mouse serum albumin (mouse, UniProt P07724 25-608).
T6 construct: Amine-coupled to the GLC sensor chip; also called Mouse SA
The description is as above.

T2 sequence (P02770 25-608 limits assumed): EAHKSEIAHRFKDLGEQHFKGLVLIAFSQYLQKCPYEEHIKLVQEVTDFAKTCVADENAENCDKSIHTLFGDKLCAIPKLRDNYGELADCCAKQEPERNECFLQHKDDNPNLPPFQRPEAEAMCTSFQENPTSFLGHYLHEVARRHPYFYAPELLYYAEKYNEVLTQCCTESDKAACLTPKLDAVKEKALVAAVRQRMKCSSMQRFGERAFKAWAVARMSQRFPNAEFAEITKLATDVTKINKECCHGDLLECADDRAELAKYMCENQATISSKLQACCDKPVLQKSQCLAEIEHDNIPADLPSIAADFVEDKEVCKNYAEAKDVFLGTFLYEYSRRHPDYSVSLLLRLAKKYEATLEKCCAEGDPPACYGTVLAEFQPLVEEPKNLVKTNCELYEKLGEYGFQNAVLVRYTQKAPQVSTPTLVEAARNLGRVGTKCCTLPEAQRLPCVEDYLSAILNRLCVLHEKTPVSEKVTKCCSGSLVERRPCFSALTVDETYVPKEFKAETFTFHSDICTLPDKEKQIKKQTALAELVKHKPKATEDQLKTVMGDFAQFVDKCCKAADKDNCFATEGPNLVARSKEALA
T3 sequence (P02768 25-609 limits assumed): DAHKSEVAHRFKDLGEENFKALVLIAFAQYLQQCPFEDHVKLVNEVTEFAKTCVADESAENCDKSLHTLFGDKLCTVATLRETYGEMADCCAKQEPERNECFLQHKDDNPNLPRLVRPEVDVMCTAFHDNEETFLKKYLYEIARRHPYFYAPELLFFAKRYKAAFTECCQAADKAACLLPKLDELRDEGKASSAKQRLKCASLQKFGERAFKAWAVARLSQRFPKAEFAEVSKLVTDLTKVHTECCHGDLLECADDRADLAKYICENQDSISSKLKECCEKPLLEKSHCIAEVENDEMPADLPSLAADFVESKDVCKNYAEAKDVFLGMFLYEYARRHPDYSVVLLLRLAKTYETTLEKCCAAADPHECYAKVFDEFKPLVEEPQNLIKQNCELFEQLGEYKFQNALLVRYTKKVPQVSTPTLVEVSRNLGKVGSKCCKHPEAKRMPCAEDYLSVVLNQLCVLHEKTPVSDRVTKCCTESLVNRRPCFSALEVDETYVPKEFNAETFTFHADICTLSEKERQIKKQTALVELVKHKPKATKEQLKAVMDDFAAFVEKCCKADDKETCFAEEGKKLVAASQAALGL
Procedure for Dog serum albumin: (§1) All studies were conducted on a BioRad ProteOn XPR36 system using a GLC sensor chip at 25 degrees C. For amine coupling the GLC chip was activated for 5 minutes using a 1:1 mixture of sulfo-NHS/EDC diluted 30-fold from the initial stock in water as shown below. Each albumin sample was diluted to 25 ug/ml in 10 mM Na Acetate pH 5.0 and injected for 5 minutes over separate sensor surfaces. Each surface was then blocked with 1 M ethanolamine pH 8.5. Each albumin was coupled at a density of 2000-5000 in resonance units.
(§2) The binding of an engineered polypeptide was tested using 5 nM as the highest concentration in a three-fold dilution series. The running buffer contained 10 mM HEPES pH 7.4, 150 mM NaCl, 3 mM EDTA and 0.005% tween-20. All samples were tested using a 3-fold dilution series. Each concentration series was tested in duplicate. The dissociation phase for the highest concentration was monitored for 3 hours.
Procedure for Human serum albumin: as §1, §2
Procedure for Monkey serum albumin: as §1, §2
Procedure for Mouse serum albumin: as §1, §2
Procedure for Rat serum albumin: as §1, §2

B1: Cmpd 9 (SEQ ID NO: 57) (other)
chain: MLAEAKVLANRELDKYGVSDFYKRLINKAKTVEGVEALKLHILAALPTGGGGSGGGSGGGSGGGSASISIEKIQADTKTLTKTIITRIIQLSTQNGVSTDQRVSGLDFIPGNQQFQNLADMDQTLAVYQQILSSLPMPDRTQISNDLENLRSLFALLATLKNCPFTRSDGLDTMEIWGGIVEESLYSTEVVTLDRLRKSLKNIEKQLDHIQGC
As for B1, in assay [1], the “EC50 nM (Obeca STAT5 assay)” value is 0.185 nM.

B2: Cmpd 4 (SEQ ID NO: 56) (other)
chain: MVPIQKVQDDTKTLIKTIVTRINDISHTQSVSSKQKVTGLEFIPGLHPILTLSKMDQTLAVYQQILTSMPSRNVIQISNDLENLRDLLHVLAFSKSCHLPQASGLETLESLGGVLEASGYSTEVVALSRLQGSLQDMLQQLDLSPGCTGGGGSGGGSGGGSGGGSASLAEAKVLANRELDKYGVSDFYKRLINKAKTVEGVEALKLHILAALP
Take B2: in assay [1], the “EC50 nM (Obeca STAT5 assay)” value was found to be 0.103 nM.

B3: Cmpd 16 (SEQ ID NO: 62) (other)
chain: MLAEAKVLANRELDKYGVSDFYKRLINKAKTVEGVEALKLHILAALPTGPIQRVQDDTKTLIKTIITRINDISPPQGVCSPRVAGLDFIPRVQSVRTLSGMDQILATYQQILTSLQSRNVIQISNDLENLRDLLHVLAFSKSCPVPRARGSDTIKGLGNVLRASVHSTEVVALSRLKAALQDMLRQLDRNPGC
Turning to B3, the “EC50 nM (Obeca STAT5 assay)” value in assay [1] turned out to be 0.411 nM.

B4: Cmpd 14 (SEQ ID NO: 60) (other)
chain: MLAEAKVLANRELDKYGVSDFYKRLINKAKTVEGVEALKLHILAALPTGGGGSGGGSGGGSGGGSASPIQRVQDDTKTLIKTIITRINDISPPQGVCSRPRVAGLDFIPRVQSVRTLSGMDQILATYQQILTSLQSRNVIQISNDLENLRDLLHVLAFSKSCPVPRARGSDTIKGLGNVLRASVHSTEVVALSRLKAALQDMLRQLDRNPGC
As for B4, in assay [1], the “EC50 nM (Obeca STAT5 assay)” value amounted to 0.406 nM.

B5: Compound 15 (SEQ ID NO: 61) (other)
chain: B4 chain with C97S
notes: also called Cmpd 15; ABD1-HuSeal
Regarding B5, the “EC50 nM (Obeca STAT5 assay)” value in assay [1] was 0.427 nM. Also, the equilibrium dissociation constant (Kd) with Rat serum albumin was less than 2 pM; with Human serum albumin it was 12 pM; with Monkey serum albumin, 17 pM; with Dog serum albumin it was 40 pM; with Mouse serum albumin, 277 pM.

B6: Cmpd 18 (SEQ ID NO: 64) (other)
chain: MLAEAKVLANRELDKYGVSDYYKNIINRAKTVEGVRALKLHILAALPTGGGGSGGGSGGGSGGGSASVPIQKVQDDTKTLIKTIVTRINDISHTQSVSSKQKVTGLEFIPGLHPILTLSKMDQTLAVYQQILTSMPSRNVIQISNDLENLRDLLHVLAFSKSCHLPQASGLETLESLGGVLEASGYSTEVVALSRLQGSLQDMLQQLDLSPGC
Consider B6, for which the “EC50 nM (Obeca STAT5 assay)” value in assay [1] came to 0.322 nM.

B7: Compound 2 (SEQ ID NO: 54) (other)
chain: B6 chain with Y21F, N24R, I25L, R28K, R36E
notes: also called Cmpd 2; ABD1-A500
Turning to B7, the “EC50 nM (Obeca STAT5 assay)” value in assay [1] stood at 0.53 nM. For the same molecule, the Kd with Rat serum albumin came to 33 pM; with Human serum albumin it was 56 pM; with Monkey serum albumin, 158 pM; in the assay with Dog serum albumin it was 358 pM; with Mouse serum albumin it was 1970 pM.

B8: Cmpd 1 (SEQ ID NO: 53) (other)
chain: MLAEAKVLANRELDKYGVSDFYKRLINKAKTVEGVEALKLHILAALPTGGGGASVPIQKVQDDTKTLIKTIVTRINDISHTQSVSSKQKVTGLEFIPGLHPILTLSKMDQTLAVYQQILTSMPSRNVIQISNDLENLRDLLHVLAFSKSCHLPQASGLETLESLGGVLEASGYSTEVVALSRLQGSLQDMLQQLDLSPGC
For B8, in assay [1], the “EC50 nM (Obeca STAT5 assay)” value was 0.628 nM.

B9: Cmpd 3 (SEQ ID NO: 55) (other)
chain: MVPIQKVQDDTKTLIKTIVTRINDISHTQSVSSKQKVTGLEFIPGLHPILTLSKMDQTLAVYQQILTSMPSRNVIQISNDLENLRDLLHVLAFSKSCHLPQASGLETLESLGGVLEASGYSTEVVALSRLQGSLQDMLQQLDLSPGCTGGGGSASLAEAKVLANRELDKYGVSDFYKRLINKAKTVEGVEALKLHILAALP
Turning to B9, the “EC50 nM (Obeca STAT5 assay)” value in assay [1] is 0.095 nM.
